The supplement of paper PMC10724198
± gives the standard deviation of the averaged measurements.

Experiments:
Saccharomyces cerevisiae [1] = experiment: protein stability index of tFT-peptide fusion (C-terminal peptide) (PSI (0-1 scale)); higher = more stable (slower turnover)
Experimental: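 MPS profiling in S. cerevisiae of the tFT-X12 degron library: putative degron peptides plus stable controls, 12 aa, fused to the C-terminus of a sfGFP-mCherry timer. Cells are FACS-sorted into 8 mCherry/sfGFP bins and deep-sequenced. PSI runs from 0 (unstable) to 1 (stable). Backgrounds are wild type, das1Δ and doa10Δ at 30 °C, and wild type, das1Δ, cdc34-1 and cdc53-1 at 37 °C; 2-3 technical replicates each.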

Saccharomyces cerevisiae [2] = experiment: as above; settings: genetic background: wild type; temperature: 30 C
[3] = genetic background: cdc34-1, temperature: 37 C
[4] = genetic background: cdc53-1, temperature: 37 C
[5] = genetic background: das1 deletion, temperature: 30 C
[6] = genetic background: das1 deletion, temperature: 37 C
[7] = genetic background: doa10 deletion, temperature: 30 C
[8] = genetic background: wild type, temperature: 30 C
[9] = genetic background: wild type, temperature: 37 C
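Also: PSI is a weighted mean of sequencing reads over stability bins, variants kept only with over 10 reads, mCherry proximal and sfGFP distal, peptide attached via GGGS linker.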

Sequence	protein stability index (Saccharomyces cerevisiae [1]; [3])	protein stability index (Saccharomyces cerevisiae [1]; [4])	protein stability index (Saccharomyces cerevisiae [1]; [5])	protein stability index (Saccharomyces cerevisiae [1]; [6])	protein stability index (Saccharomyces cerevisiae [1]; [7])	protein stability index (Saccharomyces cerevisiae [1]; [8])	protein stability index (Saccharomyces cerevisiae [1]; [9])	protein stability index (Saccharomyces cerevisiae [2])
CVISLVTAVRLF	0.514 ± 0.023	0.5526 ± 0.0029	0.453 ± 0.022	0.589 ± 0.019	0.405 ± 0.028	0.426 ± 0.026	0.544 ± 0.018	0.4644 ± 0.0021
DDVRFLLWGLCC	0.48 ± 0.022	0.459 ± 0.018	0.398 ± 0.024	0.5595 ± 0.0051	0.183 ± 0.0027	0.218 ± 0.019	0.3644 ± 0.0027	0.324 ± 0.027
DQPLWIGVLAYC	0.434 ± 0.04	0.4712 ± 0.00085	0.31 ± 0.04	0.502 ± 0.011	0.272 ± 0.0047	0.325 ± 0.013	0.487 ± 0.022	0.455 ± 0.025
DRRYIISLIYIL	0.32 ± 0.022	0.5045 ± 0.0033	0.369 ± 0.023	0.576 ± 0.035	0.0892 ± 0.014	0.0874 ± 0.015	0.105 ± 0.0088	0.113 ± 0.059
DSGMLDFLLMAW	0.541 ± 0.039	0.545 ± 0.015	0.432 ± 0.035	0.57175 ± 0.00049	0.421 ± 0.011	0.451 ± 0.013	0.53 ± 0.0056	0.598 ± 0.16
DSTLLYRPPSPA	0.672 ± 0.032	0.713 ± 0.02	0.646 ± 0.019	0.7252 ± 0.0017	0.651 ± 0.021	0.637 ± 0.02	0.683 ± 0.022	0.7089 ± 0.0008
DVVVIFGILCYC	0.0711 ± 0.0034	0.16 ± 0.0049	0.156 ± 0.045	0.3173 ± 0.0014	0.125 ± 0.014	0.15 ± 0.032	0.263 ± 0.0032	0.267 ± 0.013
DYRCWCAILVSS	0.162 ± 0.0075	0.187 ± 0.0085	0.207 ± 0.029	0.3345 ± 0.0016	0.146 ± 0.013	0.172 ± 0.032	0.246 ± 0.013	0.2611 ± 0.00049
DYSVIPSLALLP	0.692 ± 0.013	0.73118 ± 3.3e-05	0.657 ± 0.028	0.733 ± 0.015	0.669 ± 0.022	0.673 ± 0.0088	0.714 ± 0.02	0.218 ± 0.021
ECLRLTTKKKIN	0.581 ± 0.079	0.733 ± 0.069	0.657 ± 0.055	0.704 ± 0.032	0.133 ± 0.0031	0.146 ± 0.039	0.197 ± 0.088	0.173 ± 0.011
EDRKRNKERRWT	0.679 ± 0.024	0.702 ± 0.013	0.642 ± 0.015	0.716 ± 0.0076	0.305 ± 0.0042	0.303 ± 0.027	0.57 ± 0.01	0.4256 ± 0.0024
EFWWPFDRRGVI	0.76 ± 0.037	0.807 ± 0.011	0.7244 ± 0.0059	0.83 ± 0.015	0.721 ± 0.029	0.7117 ± 0.0043	0.822 ± 0.012	0.748 ± 0.011
EKKRERQKGEME	0.656 ± 0.055	0.7542 ± 0.0053	0.6109 ± 0.0056	0.72 ± 0.027	0.627 ± 0.026	0.635 ± 0.014	0.717 ± 0.012	0.579 ± 0.12
ETQKEKRENAKP	0.649 ± 0.028	0.70222 ± 0.00044	0.646 ± 0.032	0.71 ± 0.035	0.6492 ± 0.0039	0.623 ± 0.016	0.677 ± 0.024	0.713 ± 0.0091
EVGFHRRWVALS	0.612 ± 0.052	0.7235 ± 0.007	0.65 ± 0.015	0.737 ± 0.019	0.114 ± 0.02	0.141 ± 0.016	0.275 ± 0.053	0.189 ± 0.0082
